Source: patent US20230183665A1, “THERMOSTABLE GLUCOCEREBROSIDASE” (TEIKYO UNIVERSITY, priority 2020, published 2023)

What was measured:
[1] = Optimum temperature for glucocerebrosidase activity (Examples 5, 12, 20); format: biochemical; details: 100 μM cerebroside B, pH 5.5, 15 minutes at each temperature, average of three tests
Method: The glucocerebrosidase activity of the fraction was measured as follows: a predetermined amount of sample was added to a 50 mM acetate buffer solution (pH 5.5) containing 100 μM glucosylceramide (cerebroside B), 0.1% Tween 20, and 0.05% sodium cholate, and incubated at 37° C. for 15 minutes. Subsequently, a 4-fold amount of ethanol was added to the obtained reaction solution, mixed therewith, and then centrifuged at 15000 rpm for 20 minutes. The centrifuged supernatant was subjected to high-performance liquid chromatography analysis. In the high-performance liquid chromatography analysis, the sample was injected to TSKgel ODS-120T column (4.6 mm×30 cm), and a solvent having an ethanol concentration of 83% was flowed at a flow rate of 0.8 mL/min, followed by detection in a UV detector (ultraviolet absorption wavelength: 215 nm) to thereby measure the amount of ceramide newly generated through enzymatic reaction. The amount of ceramide was determined by using, as a standard, ceramide generated from cerebroside B by imiglucerase (manufactured by Sanofi S. A.), human-derived glucocerebrosidase. The molecular weight of the generated ceramide was examined by negative LC-MS (manufactured by Agilent Technologies, Inc.) to thereby confirm that it was ceramide generated from cerebroside B (ESI-MS m/z: 564.5[M-H]^−). Glucocerebrosidase activity per mL of the enzyme solution was calculated when the amount of the enzyme that generated 1 μmol of ceramide for 1 minute in the enzymatic reaction solution was defined as 1 unit (U).
RGC1 obtained in Example 2 and imiglucerase were each added to a 50 mM acetate buffer solution (pH 5.5) containing 100 μM glucosylceramide (cerebroside B), 0.1% Tween 20, and 0.05% sodium cholate, and incubated at each temperature for 15 minutes. Subsequently, a 4-fold amount of ethanol was added to the obtained reaction solution, mixed therewith, and then centrifuged under a condition of 15000 rpm for 20 minutes. The supernatant was subjected to high-performance liquid chromatography analysis to measure the amount of ceramide generated through enzymatic reaction. The high-performance liquid chromatography analysis was carried out in the same manner as in Example 2. The amount of ceramide and enzymatic activity were also calculated in the same manner as in Example 2. A temperature that attained the highest glucocerebrosidase activity was regarded as the optimum temperature. This test was conducted three times, and an average value was determined therefrom.
The optimum temperatures for the glucocerebrosidase activity of SGC1 obtained in Example 11 and imiglucerase were confirmed by the same method as in Example 5.
Enzyme extracts derived from various plants which were obtained in accordance with Example 19, the purified rice-derived RGC1 mentioned above and the purified soybean-derived SGC1 mentioned above were each added to a 50 mM sodium acetate buffer solution (pH 5.5) containing 100 μM glucosylceramide (cerebroside B), 0.1% Tween 20, and 0.05% sodium cholate, and incubated at each temperature for 15 minutes. Subsequently, a 4-fold amount of ethanol was added to the obtained reaction solution, mixed therewith, and then centrifuged at 15000 rpm for 20 minutes. The supernatant was subjected to high-performance liquid chromatography analysis to measure the amount of ceramide generated through enzymatic reaction. The high-performance liquid chromatography analysis was carried out in the same manner as in Example 5. The amount of ceramide and enzymatic activity were also calculated in the same manner as in Example 5. As a result, a temperature that attained the highest glucocerebrosidase activity was regarded as the optimum temperature. This test was conducted three times, and an average value was determined therefrom.

[2] = Thermostability: relative residual glucocerebrosidase activity after incubation at pH 5 and pH 7 (Examples 6, 13); format: physicochemical; details: 37° C.; pH 5 for 6 to 106 hours, pH 7 for 4 to 48 hours; FIGS. 1 and 2
Method: The glucocerebrosidase activity of the fraction was measured as follows: a predetermined amount of sample was added to a 50 mM acetate buffer solution (pH 5.5) containing 100 μM glucosylceramide (cerebroside B), 0.1% Tween 20, and 0.05% sodium cholate, and incubated at 37° C. for 15 minutes. Subsequently, a 4-fold amount of ethanol was added to the obtained reaction solution, mixed therewith, and then centrifuged at 15000 rpm for 20 minutes. The centrifuged supernatant was subjected to high-performance liquid chromatography analysis. […] The amount of ceramide was determined by using, as a standard, ceramide generated from cerebroside B by imiglucerase (manufactured by Sanofi S. A.), human-derived glucocerebrosidase. […] Glucocerebrosidase activity per mL of the enzyme solution was calculated when the amount of the enzyme that generated 1 μmol of ceramide for 1 minute in the enzymatic reaction solution was defined as 1 unit (U).
RGC1 obtained in Example 2 and imiglucerase were each incubated at pH 5 simulating lysosome (50 mM acetate buffer solution (pH 5.0) containing 0.1% Triton X-100 and 0.05% sodium cholate) at 37° C. for 6 to 106 hours or at pH 7 simulating cytoplasm (50 mM potassium phosphate buffer solution (pH 7.0) containing 0.1% Triton X-100 and 0.05% sodium cholate) at 37° C. for 4 to 48 hours. […] This test was conducted three times, and an average value was determined therefrom. […]

B1: RGC1: rice-derived glucocerebrosidase purified from rice stems; identical to Os3BGlu6, belongs to GH1; SEQ ID NO: 1 (protein)
chain: MGRIKSSSGRCSTARLEAVAVLVVVFGVASSSLRGCIAQQSGGGLTRGSFPEGFVFGTASAAYQYEGAVKEDGRGQTIWDTFAHTFGKITDFSNADVAVDQYHRFEEDIQLMADMGMDAYRFSIAWSRIYPNGVGQVNQAGIDHYNKLIDALLAKGIQPYVTLYHWDLPQALEDKYKGWLDRQIVDDFAAYAETCFREFGDRVKHWITLNEPHTVAIQGYDAGLQAPGRCSVLLHLYCKAGNSGTEPYVVAHHFILAHAAAASIYRTKYKATQNGQLGIAFDVMWFEPMSNTTIDIEAAKRAQEFQLGWFADPFFFGDYPATMRARVGERLPRFTADEAAVVKGALDFVGINHYTTYYTRHNNTNIIGTLLNNTLADTGTVSLPFKNGKPIGDRANSIWLYIVPRGMRSLMNYVKERYNSPPVYITENGMDDSNNPFISIKDALKDSKRIKYHNDYLTNLAASIKEDGCDVRGYFAWSLLDNWEWAAGYSSRFGLYFVDYKDNLKRYPKNSVQWFKALLKT
modifications: Glycine max (L.) Merr. Enrei
Optimum temperature (° C.) ([1]; Example 5): 54.0 °C
Optimum temperature (° C.) ([1]; Example 20): 54.0 °C
stability (relative residual activity) compared with imiglucerase [2]: evidently superior in stability to imiglucerase
